Data on eight molecules can be found in patent US20230333112A1 (MARENGO THERAPEUTICS, published 2023).

This experiment has as its target T1, Human NKp30 (BKM0179) (human, UniProt O14931 19-135, limits assumed).
T1 sequence (looked up): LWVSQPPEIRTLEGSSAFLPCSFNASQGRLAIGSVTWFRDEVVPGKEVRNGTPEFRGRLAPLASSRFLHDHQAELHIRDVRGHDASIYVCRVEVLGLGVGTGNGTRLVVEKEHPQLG
Kind of experiment: SPR (BIAcore T200); human NKp30 BKM0179 captured on a CM5 chip via anti-mouse Fc, antibody construct injected at 3.9-125 nM; 1:1 model.

Description: In this example, a series of exemplary anti-NKp30 antibody molecules were analyzed for their binding affinity for NKp30. Briefly, surface plasmon resonance (SPR) measurements were performed by using the BIAcore T200. Human NKp30 (BKM0179) was immobilized on a CM5 chip via anti-mouse Fc antibody to a response of 50 RU. […] The data was fit using a 1:1 binding model.

B1: BKM0138 (antibody, V domains shown)
VH: EIQLLESGGGLVQPGGSLRLSCAVSGFSITTTGYHWNWVRQAPGKGLEWVGYIYSSGSTSYNPSLKSRFTISRDTSKNTFYLQMNSLRAEDTAVYYCARGDWHYFDYWGQGTMVTVSS
VL: DSVTTQSPLSLPVTLGQPASISCSGEKLSDKYVHWYQQRPGQSPRMLIYENDRRPSGVPDRFSGSNSGNDATLKISRVEAEDVGVYFCQFWDSTASAVFGGGTKVEIK
notes: also called BJM0411 VL-N95A
In the case of B1, binding was put at a Kd of 3.2 nM.

B2: BKM0142 (antibody, V domains shown)
VH: EIQLLESGGGLVQPGGSLRLSCAVSGFSITTTGYHWNWVRQAPGKGLEWVGYIYSSGSTSYAPSLKSRFTISRDTSKNTFYLQMNSLRAEDTAVYYCARGDWHYFDYWGQGTMVTVSS
VL: DSVTTQSPLSLPVTLGQPASISCSGEKLSDKYVHWYQQRPGQSPRMLIYENDRRPSGVPDRFSGSNSGNDATLKISRVEAEDVGVYFCQFWDSTNSAVFGGGTKVEIK
notes: also called BJM0411 VH-N60A
In turn, B2 came in with a Kd of 1.28 nM.

B3: BKM0143 (antibody, V domains shown)
VH: EIQLLESGGGLVQPGGSLRLSCAVSGFSITTTGYHWNWVRQAPGKGLEWVGYIYSSGSTSYAPSLKSRFTISRDTSKNTFYLQMNSLRAEDTAVYYCARGDWHYFDYWGQGTMVTVSS
VL: SSETTQPPSVSVSPGQTASITCSGEKLSDKYVHWYQQKPGQSPVMVIYENDRRPSGIPERFSGSNSGNTATLTISGTQAMDEADYFCQFWDSTNSAVFGGGTQLTVL
notes: also called BJM0407 VH-N60A
In the case of B3, the affinity, expressed as Kd, was 1.45 nM.

B4: BKM0139 (antibody, V domains shown)
VH: EIQLLESGGGLVQPGGSLRLSCAVSGFSITTTGYHWNWVRQAPGKGLEWVGYIYSSGSTSYNPSLKSRFTISRDTSKNTFYLQMNSLRAEDTAVYYCARGDWHYFDYWGQGTMVTVSS
VL: DSVTTQSPLSLPVTLGQPASISCSGEKLSDKYVHWYQQRPGQSPRMLIYENDRRPSGVPDRFSGSNSGNDATLKISRVEAEDVGVYFCQFWASTNSAVFGGGTKVEIK
notes: also called BJM0411 VL-D92A
The molecule B4 showed a dissociation constant (Kd) of 3.2 nM.

B5: BKM0144 (antibody, V domains shown)
VH: EIQLLESGGGLVQPGGSLRLSCAVSGFSITTTGYHWNWVRQAPGKGLEWVGYIYSSGSTSYAPSLKSRFTISRDTSKNTFYLQMNSLRAEDTAVYYCARGDWHYFDYWGQGTMVTVSS
VL: DSVTTQSPLSLPVTLGQPASISCSGEKLSDKYVHWYQQRPGQSPRMLIYENDRRPSGVPDRFSGSNSGNDATLKISRVEAEDVGVYFCQFWASTASAVFGGGTKVEIK
notes: also called BJM0411 VH-N60A-VL-D92A-N95A
Turning to B5, binding was put at a Kd of 6.4 nM. Against the preceding molecule, the Kd is about 2-fold higher.

B6: BKM0140 (antibody, V domains shown)
VH: EIQLLESGGGLVQPGGSLRLSCAVSGFSITTTGYHWNWVRQAPGKGLEWVGYIYSSGSTSYNPSLKSRFTISRDTSKNTFYLQMNSLRAEDTAVYYCARGDWHYFDYWGQGTMVTVSS
VL: SSETTQPPSVSVSPGQTASITCSGEKLSDKYVHWYQQKPGQSPVMVIYENDRRPSGIPERFSGSNSGNTATLTISGTQAMDEADYFCQFWASTNSAVFGGGTQLTVL
notes: also called BJM0407 VL-D92A
In turn, B6 gave an equilibrium dissociation constant (Kd) of 3.3 nM.

B7: BKM0141 (antibody, V domains shown)
VH: EIQLLESGGGLVQPGGSLRLSCAVSGFSITTTGYHWNWVRQAPGKGLEWVGYIYSSGSTSYNPSLKSRFTISRDTSKNTFYLQMNSLRAEDTAVYYCARGDWHYFDYWGQGTMVTVSS
VL: SSETTQPPSVSVSPGQTASITCSGEKLSDKYVHWYQQKPGQSPVMVIYENDRRPSGIPERFSGSNSGNTATLTISGTQAMDEADYFCQFWDSTASAVFGGGTQLTVL
notes: also called BJM0407 VL-N95A
B7: the dissociation constant (Kd) was 3 nM.

B8: BKM0145 (antibody, V domains shown)
VH: EIQLLESGGGLVQPGGSLRLSCAVSGFSITTTGYHWNWVRQAPGKGLEWVGYIYSSGSTSYAPSLKSRFTISRDTSKNTFYLQMNSLRAEDTAVYYCARGDWHYFDYWGQGTMVTVSS
VL: SSETTQPPSVSVSPGQTASITCSGEKLSDKYVHWYQQKPGQSPVMVIYENDRRPSGIPERFSGSNSGNTATLTISGTQAMDEADYFCQFWASTASAVFGGGTQLTVL
notes: also called BJM0407 VH-N60A-VL-D92A-N95A
On to B8, for which binding was put at a Kd of 4.2 nM. The Kd values of the last two molecules are within 1.5-fold of each other.
